Measured values: patent publication US20150203577A1 (Chugai, published 2015)
Where a chain is given by its changes, count along the chain named. Numbers in names are those of the source.

B1: H237-MB715/MRAL-k0 (antibody, mouse IgG1, kappa)
heavy: QVQLQESGPGLVKPSETLSLTCAVSGHSISHDHAWSWVRQPPGEGLEWIGFISYSGITNYNPSLQGRVTISRDNSKNTLYLQMNSLRAEDTAVYYCARSLARTTAMDYWGEGTLVTVSSAKTTPPSVYPLAPGSAAQTNSMVTLGCLVKGYFPEPVTVTWNSGSLSSGVHTFPAVLQSDLYTLSSSVTVPSSTWPSETVTCNVAHPASSTKVDKKIVPRDCGCKPCICEPNEVEVVFIFPPKPKDVLTITLTPKVTCVVVDISKDDPEVQFSWFVDDVEVHTAQTQPREEQFNSTFRSVSELPIMHQDWLNGKEFKCRVNSAAFPAPIEKTISKTKGRPKAPQVYTIPPPKEQMAKDKVSLTCMITDFFPEDITVEWQWNGQPAENYKNTQPIMDTDGSYFVYSKLNVQKSNWEAGNTFTCSVLHEGLHNHHTEKSLSHSPGK
light: not shown
notes: copies: 2 + 2
B2: H237-MB717/MRAL-k0 (antibody, mouse IgG1, kappa)
heavy: B1 heavy with V235P
light: not shown
notes: copies: 2 + 2
B3: H237-MB703/MRAL-k0 (antibody, mouse IgG1, kappa)
heavy: B1 heavy with P230A, N231P, V235N
light: not shown
notes: copies: 2 + 2
B4: H237-MB793/MRAL-k0 (antibody)
heavy: B1 heavy with E229Q, V235I
light: not shown
notes: 'S2391' in r30c2 read as S239I; copies: 2 + 2
B5: H237-MB718/MRAL-k0 (antibody, mouse IgG1, kappa)
heavy: B1 heavy with V235T
light: not shown
notes: copies: 2 + 2
B6: H237-MB732/MRAL-k0 (antibody, mouse IgG1, kappa)
heavy: B1 heavy with V233E, V235L
light: not shown
notes: copies: 2 + 2
B7: H237-MB709/MRAL-k0 (antibody, mouse IgG1, kappa)
heavy: B1 heavy with N231A, V235T
light: not shown
notes: copies: 2 + 2
B8: H237-MB886/MRAL-k0 (antibody, mouse IgG1, kappa)
heavy: B1 heavy with V233E, V235S
light: not shown
notes: copies: 2 + 2
B9: H237-MB731/MRAL-k0 (antibody, mouse IgG1, kappa)
heavy: B1 heavy with N231A, V233E, V235L
light: not shown
notes: copies: 2 + 2
B10: H237-MB702/MRAL-k0 (antibody, mouse IgG1, kappa)
heavy: B1 heavy with E229T, P230A, N231Y, V235N
light: not shown
notes: copies: 2 + 2
B11: H237-MB628/MRAL-k0 (antibody)
heavy: B1 heavy with N231A, V235L
light: not shown
notes: copies: 2 + 2
B12: H237-MB692/MRAL-k0 (antibody, mouse IgG1, kappa)
heavy: B1 heavy with N231P, V235Y
light: not shown
notes: copies: 2 + 2
B13: H237-MB646/MRAL-k0 (antibody, mouse IgG1, kappa)
heavy: B1 heavy with N231A, V235Y
light: not shown
notes: copies: 2 + 2
B14: H237-MB693/MRAL-k0 (antibody, mouse IgG1, kappa)
heavy: B1 heavy with E229T, P230D, N231Y, V235Y
light: not shown
notes: copies: 2 + 2
B15: H237-MB694/MRAL-k0 (antibody)
heavy: B1 heavy with P230D, N231P, V235Y
light: not shown
notes: copies: 2 + 2
B16: H237-MB690/MRAL-k0 (antibody, mouse IgG1, kappa)
heavy: B1 heavy with E229T, N231A, V235Y
light: not shown
notes: copies: 2 + 2
B17: H237-MB686/MRAL-k0 (antibody, mouse IgG1, kappa)
heavy: B1 heavy with P230V, N231A, V235L
light: not shown
notes: copies: 2 + 2
B18: H237-MB691/MRAL-k0 (antibody, mouse IgG1, kappa)
heavy: B1 heavy with P230V, N231A, V235Y
light: not shown
notes: copies: 2 + 2
B19: H237-MB688/MRAL-k0 (antibody, mouse IgG1, kappa)
heavy: B1 heavy with E229T, P230V, N231Y, V235N
light: not shown
notes: copies: 2 + 2
B20: H237-MB689/MRAL-k0 (antibody, mouse IgG1, kappa)
heavy: B1 heavy with P230V, N231P, V235N
light: not shown
notes: copies: 2 + 2
B21: H237-MB687/MRAL-k0 (antibody)
heavy: B1 heavy with N231P, V235L
light: not shown
notes: copies: 2 + 2
B22: H237-MB645/MRAL-k0 (antibody, mouse IgG1, kappa)
heavy: B1 heavy with P230V, N231Y, V235Y
light: not shown
notes: copies: 2 + 2
B23: H237-MB657/MRAL-k0 (antibody, mouse IgG1, kappa)
heavy: B1 heavy with V235F
light: not shown
notes: copies: 2 + 2
B24: H237-MB695/MRAL-k0 (antibody, mouse IgG1, kappa)
heavy: B1 heavy with E229T, V235F
light: not shown
notes: copies: 2 + 2
B25: H237-MB685/MRAL-k0 (antibody, mouse IgG1, kappa)
heavy: B1 heavy with E229T, N231A, V235L
light: not shown
notes: copies: 2 + 2
B26: H237-MB632/MRAL-k0 (antibody, mouse IgG1, kappa)
heavy: B1 heavy with P230A, N231Y, V235N
light: not shown
notes: copies: 2 + 2
B27: H237-MB636/MRAL-k0 (antibody, mouse IgG1, kappa)
heavy: B1 heavy with P230V, N231Y, V235N
light: not shown
notes: copies: 2 + 2
B28: H237-MB642/MRAL-k0 (antibody, mouse IgG1, kappa)
heavy: B1 heavy with P230D, N231Y, V235Y
light: not shown
notes: copies: 2 + 2

biological target: T1, mouse FcγRII (mouse, UniProt P08101 30-210); assay: SPR (Biacore), antibody captured on Protein L
T1 construct: Extracellular domain with C-terminal His tag, made in FreeStyle 293 cells; also called mFcγRII; mFcgRII
T1 sequence: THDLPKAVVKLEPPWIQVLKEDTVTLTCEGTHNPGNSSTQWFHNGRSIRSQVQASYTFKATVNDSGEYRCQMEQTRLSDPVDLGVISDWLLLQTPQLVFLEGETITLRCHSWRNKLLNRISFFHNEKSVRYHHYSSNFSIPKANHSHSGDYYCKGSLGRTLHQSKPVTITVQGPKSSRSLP

Kd [nM] | Binder
236 | B1
514 | B2
345 | B3
179 | B4
247 | B5
321 | B6
345 | B7
246 | B8
238 | B9
339 | B10

Biological target: T2, mouse FcγRIII (mouse, UniProt P08508 31-215)
T2 construct: Extracellular domain with C-terminal His tag, made in FreeStyle 293 cells; also called mFcγRIII; mFcgRIII
T2 chain: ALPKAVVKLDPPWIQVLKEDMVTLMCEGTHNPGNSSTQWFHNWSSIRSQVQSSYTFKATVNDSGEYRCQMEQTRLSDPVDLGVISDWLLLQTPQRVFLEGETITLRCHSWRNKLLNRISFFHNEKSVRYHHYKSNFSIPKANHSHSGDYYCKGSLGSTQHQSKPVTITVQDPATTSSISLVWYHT
Assay: SPR (Biacore), antibody captured on Protein L

Kd [nM] | Binder
11900 | B1
8620 | B2
4900 | B3
5500 | B4
5560 | B5
13700 | B6
7690 | B7
7220 | B8
15300 | B9
3520 | B10

biological target: T1, mouse FcγRII; assay: SPR (Biacore), KD of H237-mIgG1/MRAL-k0 (same run) / KD of variant

relative mFcγRII-binding activity (mIgG1 = 1) [fold] | Binder
1.14 | B1
0.52 | B2
0.94 | B3
1.37 | B4
1.08 | B5
0.84 | B6
0.78 | B7
1.47 | B8
1.13 | B9
0.96 | B10

Biological target: T2, mouse FcγRIII
Assay: as above

relative mFcγRIII-binding activity (mIgG1 = 1) [fold] | Binder
0.04 | B1
0.05 | B2
0.1 | B3
0.07 | B4
0.08 | B5
0.03 | B6
0.06 | B7
0.08 | B8
0.03 | B9
0.14 | B10

Biological target: T3, mouse FcγRIII extracellular domain, C-terminal His tag (mouse, UniProt P08508 31-215)
T3 construct: Whole entry named; also called mFcγRIII; mFcgRIII
T3 chain: T2 chain
Assay: SPR (Biacore T200); KD of H237-mIgG1/MRAL-k0 / KD of variant
Text: (§1) The antibody H chain variable region used was the variable region H237 (SEQ ID NO: 1) of the H chain VH3-IgG1 of the anti-IL-6 receptor antibody Fv4-IgG1 described in WO2009/125825. The antibody L chain commonly used was the L chain MRAL-k0 (SEQ ID NO: 2) of the anti-IL-6 receptor antibody tocilizumab. The aforementioned 7 variants were used as templates to substitute the amino acids at the alteration sites by the amino acids before the alteration. These variants were expressed and purified by the method of Reference Example 1 and evaluated for their binding to mFcγRII and mFcγRIII by the method of Reference Example 2 using Biacore T200.
(§2) Each altered antibody was analyzed for its interaction with each Fcγ receptor prepared above using Biacore T100 (GE Healthcare Japan Corp.), Biacore T200 (GE Healthcare Japan Corp.), Biacore A100, or Biacore 4000. The running buffer used was HBS-EP+ (GE Healthcare Japan Corp.). The assay temperature was set to 25° C. The sensor chips used were chips prepared by immobilizing Protein L (ACTIGEN or BioVision) onto Series S Sensor Chip CM5 (GE Healthcare Japan Corp.) or Series S Sensor Chip CM4 (GE Healthcare Japan Corp.) by the amine coupling method.

relative mFcγRIII-binding activity (mIgG1 = 1) [fold] | Binder
0.083 | B11
0.115 | B12
0.176 | B13
0.094 | B14
0.031 | B15
0.188 | B16
0.052 | B17
0.071 | B18
0.081 | B19
0.075 | B20
0.096 | B21
0.217 | B22
0.087 | B23
0.088 | B24
0.093 | B25
0.236 | B26
0.172 | B27
0.1 | B28

biological target: T4, mouse FcγRII extracellular domain, C-terminal His tag (mouse, UniProt P08101 30-210); assay: as above
T4 construct: Whole entry named; also called mFcγRII; mFcgRII
T4 sequence: T1 sequence
Text: as §1, §2

relative mFcγRII-binding activity (mIgG1 = 1) [fold] | Binder
2.09 | B11
1.75 | B12
3.8 | B13
1.22 | B14
0.544 | B15
1.6 | B16
0.167 | B17
0.582 | B18
0.634 | B19
0.413 | B20
0.943 | B21
1.06 | B22
1.54 | B23
0.435 | B24
0.606 | B25
3.72 | B26
3.92 | B27
1.65 | B28
